T1: DUE-B (Homo sapiens, UniProt Q8TEA8 SEQ:1-209)
T1 sequence: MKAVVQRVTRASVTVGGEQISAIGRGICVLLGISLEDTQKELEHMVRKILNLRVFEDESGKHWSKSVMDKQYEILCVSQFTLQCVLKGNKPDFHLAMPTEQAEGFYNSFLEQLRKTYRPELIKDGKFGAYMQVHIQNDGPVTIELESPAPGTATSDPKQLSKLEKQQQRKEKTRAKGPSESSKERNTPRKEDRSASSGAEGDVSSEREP

B1: DUE 30-mer probe (dsDNA)
DNA 1: GGAATATACATTATATATTAAATATAGATC
DNA 2: GATCTATATTTAATATATAATGTATATTCC
B2: c-myc DUE/ARS 123 bp probe (dsDNA)
DNA 1: GAAGGAATTCATGAGAAGAATGTTTTTTGTTTTTCATGCCGTGGAATAACACAAAATAAAAAATCCCGAGGGAATATACATTATATATTAAATATAGATCATTTCAGGGAGCTCGAGAAACAA
DNA 2: TTGTTTCTCGAGCTCCCTGAAATGATCTATATTTAATATATAATGTATATTCCCTCGGGATTTTTTATTTTGTGTTATTCCACGGCATGAAAAACAAAAAACATTCTTCTCATGAATTCCTTC

Columns and labels:
[1] = biological target: T1, DUE-B; test: FP; saturable polarization; 2 nM oligo; 100 mM Tris pH 7.5 (printed mN), 800 mM NaCl, 10 mM EDTA; reversed by poly dI-dC; 16-epiestriol (E2850) stimulates; conditions: tags: N-terminal 6His and V5, baculovirus expressed; label: FITC at 3' end of both strands via C6 spacer
Procedure: A mastermix is prepared consisting of 1× reaction buffer, 2 nM labeled oligo and 0.125 or 0.250 ug DUE-B per 100 ul of mastermix. Compounds (in this case steroids) are added to the bottom of a 96 well plate. 100 ul of mastermix is added to each well and allowed to equilibrate for 30 sec. Fluorescence polarization is then measured.
In FIG. 23A, the effect of increasing concentrations of DUE-B on the polarization of dsDNA was assessed. As expected, polarization of the dsDNA becomes saturated as the DUE-B protein concentration increases. Note that at 0.125 and 0.250 μg of DUE-B a reasonable shift in polarization of dsDNA is seen. Using these set conditions (0.250 ug DUE-B), the effect of adding a non-specific DNA inhibitor (pdldC) to the reaction (FIG. 23B) was tested. […] It is observed that the polarization was stable for at least 2 hours, making this assay very feasible for high throughput screening.

[2] = biological target: T1, DUE-B; test: EMSA; strongly retarded complex without poly dI-dC; 30 C 30 min; reduced by poly dI-dC; conditions: tags: 6His, baculovirus/Sf9 expressed, Ni-NTA; label: 32P (alpha-32P-dCTP by PCR)
Procedure: An electrophoretic mobility shift assay (EMSA) was used to test whether the baculovirus expressed DUE-B protein could bind to DNA in vitro. When added to a radiolabeled c-myc DUE probe in the absence of nonspecific competitor (poly dI-dC), DUE-B produced a strongly retarded protein-DNA complex band (FIG. 14, lanes 1-4). […] When HeLa cell cytoplasmic extract was added to the c-myc DUE probe in the absence of poly dI-dC an intense band was observed that was not affected by the addition of DUE-B (lanes 13-16). With the addition of the nonspecific competitor poly dI-dC, however, a novel band appeared that was dependent on the addition of DUE-B (asterisks, lanes 17-24). […] Similar to the results obtained when cytosol was added to the c-myc DUE probe, when nuclear extract from HeLa cells was added to the c-myc DUE probe in the absence of poly dI-dC an intense band was observed that was not affected by the addition of DUE-B (lanes 25-28). In the presence of competitor for nonspecific binding, however, a novel band appeared that was dependent on the addition of DUE-B (brackets, lanes 32 and 36). […] In FIG. 14, a 123 bp fragment of the c-myc replication origin containing the DUE/ARS region was labeled with alpha-³²P-dCTP by PCR. 25 fmol were mixed with recombinant DUE-B purified by Ni-NTA affinity chromatography from SF9 insect cells. […]

Row | Binder | binding result [1] | binding result [2]
1 | B1 | binds | –
2 | B2 | – | binds

Reference: US20040219554, “Dna binding protein” (published 2004)
